The results in this text go back to US20250283063, “NOVEL CRISPR-CAS12I SYSTEMS AND USES THEREOF” (HUIDAGENE THERAPEUTICS (SINGAPORE) PTE. LTD., published 2025).

In this data set the target is T1, Cas12Max (xCas12i-N243R, v1.1) (N243R).
T1 chain: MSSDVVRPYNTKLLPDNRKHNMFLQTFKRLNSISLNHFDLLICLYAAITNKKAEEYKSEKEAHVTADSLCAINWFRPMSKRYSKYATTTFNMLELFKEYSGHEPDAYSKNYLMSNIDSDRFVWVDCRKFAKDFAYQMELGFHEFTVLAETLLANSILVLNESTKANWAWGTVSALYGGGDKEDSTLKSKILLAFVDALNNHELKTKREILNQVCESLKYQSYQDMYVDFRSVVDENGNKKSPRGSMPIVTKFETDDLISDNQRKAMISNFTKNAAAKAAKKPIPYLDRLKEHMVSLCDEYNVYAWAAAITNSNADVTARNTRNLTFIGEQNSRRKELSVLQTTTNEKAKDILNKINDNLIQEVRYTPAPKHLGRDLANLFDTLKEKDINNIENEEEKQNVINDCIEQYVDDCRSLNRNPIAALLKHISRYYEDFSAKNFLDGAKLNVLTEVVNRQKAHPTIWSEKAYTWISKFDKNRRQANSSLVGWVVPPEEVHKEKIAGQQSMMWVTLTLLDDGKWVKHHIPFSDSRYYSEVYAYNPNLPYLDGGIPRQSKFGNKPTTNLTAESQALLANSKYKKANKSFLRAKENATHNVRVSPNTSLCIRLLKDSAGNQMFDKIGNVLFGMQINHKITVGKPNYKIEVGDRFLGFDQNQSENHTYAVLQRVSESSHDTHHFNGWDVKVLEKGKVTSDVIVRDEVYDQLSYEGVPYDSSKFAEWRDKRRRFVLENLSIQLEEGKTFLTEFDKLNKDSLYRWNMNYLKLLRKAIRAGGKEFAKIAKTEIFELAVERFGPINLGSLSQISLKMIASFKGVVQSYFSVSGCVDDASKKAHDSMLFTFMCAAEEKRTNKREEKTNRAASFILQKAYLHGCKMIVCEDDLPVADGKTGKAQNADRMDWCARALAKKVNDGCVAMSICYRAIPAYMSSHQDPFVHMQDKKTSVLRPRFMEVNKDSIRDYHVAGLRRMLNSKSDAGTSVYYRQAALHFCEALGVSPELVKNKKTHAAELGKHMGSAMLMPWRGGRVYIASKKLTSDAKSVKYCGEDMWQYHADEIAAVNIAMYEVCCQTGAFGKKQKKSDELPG
Nature of the data set: cell_activity; PAM TTTG; OT-1. Particulars: tags: NLS. How it is done: HEK293T cells were cultured in 24-well tissue culture plates according to standard methods for 12 hours, before the reporter and expression plasmids were co-transfected into the cells using standard polyethyleneimine (PEI) transfection. The transfected cells were then cultured at 37° C. under 5% CO₂ for 48 hours. Then the cultured cells were analyzed by flow cytometry for BFP, EGFP, and mCherry fluorescent signals. A “blank” control group was also set up, where only the reporter plasmid was transfected, and no expression plasmid was introduced.
A dual plasmid fluorescent reporter system for evaluation of off-target dsDNA cleavage activity (off-target reporter system; referring to “Off-Target Reporter” in FIG. 1B) was established, which was similar to the dual plasmid fluorescent reporter system in Example 6 for evaluation of (on-target) dsDNA cleavage activity, except that the insertion sequence of the EGxxxxFP coding sequence contains an TTR off-target protospacer sequence (one of SEQ ID NOs: 127-129) containing one or more mismatches (bold, underlined) with a TTR-targeting spacer sequence (SEQ ID NO: 130) in the gRNA, rather than containing a TTR on-target protospacer sequence (SEQ ID NO: 130; which is the same as SEQ ID NO: 107 in Example 5); DR-T1 sequence (SEQ ID NO: 451) was used. To save drafting, the on-target protospacer sequence/spacer sequence in Table 7 refer to both the protospacer sequence (a DNA sequence) and the corresponding spacer sequence (an RNA sequence) with any “T” in the sequence when referring to a protospacer sequences standing for “T” and when referring to a such spacer sequence standing for “U”, although the assigned SEQ ID NO: 130 in the sequence listing is annotated as DNA.

B1: TTR.2 crRNA ; TTR OT.1 (ssRNA ; dsDNA)
RNA: AUGACUCAGAAAUGUGUCCCCAGUUGACACUAGAAGGGAUAUACAAAGUGGA
DNA 1: TTTGTAGAAGGGATATAGAAAGTATC
DNA 2: GATACTTTCTATATCCCTTCTACAAA
With B1, the activity stood at 60.2%.
